In paper PMC9338999:

Legend:
[1] = target: full-length human EGFR S492R on NIH3T3 cells (human) (UniProt P00533); assay: FACS
[2] = target: full-length human wild-type EGFR on NIH3T3 cells (human) (UniProt P00533); assay: FACS
[3] = target: S492R-EGFR-ECD-Fc (human) (UniProt P00533); assay: ELISA
WT-EGFR-ECD-Fc (human) = WT-EGFR-ECD-Fc (human) (UniProt P00533); assay: ELISA

- Kd [1]: 2.33 nM
- Kd [2]: 2.36 nM
- Kd [3]: 0.0272 nM
- Kd (WT-EGFR-ECD-Fc (human)): 0.0211 nM
Substance: Panitumumab
